In PMC6291932:

Molecular target: recombinant zika virus (ZIKV) non-structural 1 (NS1) protein (Zika virus)
Experiment: SEC; Superdex 200 10/300, elution in 50 mM CAPS pH 11.0; supernatants of NS1 inclusion bodies subjected to 2.4 kbar/0.4 kbar at pH 10.0 to 12.5, with or without Arg

## recombinant zika virus (ZIKV) non-structural 1 (NS1) protein (natural protein)
  stoichiometry N: 2
